Assay results: patent US20070082364A1 (Takeda / Millennium, published 2007)

Key:
human GPR8 = human GPR8 (human, UniProt P48146 1-333); assay: cell-based or functional assay
human GPR7 = target: T1, human GPR7 (human, UniProt P48145 1-328); assay: cell-based or functional assay
T1 sequence: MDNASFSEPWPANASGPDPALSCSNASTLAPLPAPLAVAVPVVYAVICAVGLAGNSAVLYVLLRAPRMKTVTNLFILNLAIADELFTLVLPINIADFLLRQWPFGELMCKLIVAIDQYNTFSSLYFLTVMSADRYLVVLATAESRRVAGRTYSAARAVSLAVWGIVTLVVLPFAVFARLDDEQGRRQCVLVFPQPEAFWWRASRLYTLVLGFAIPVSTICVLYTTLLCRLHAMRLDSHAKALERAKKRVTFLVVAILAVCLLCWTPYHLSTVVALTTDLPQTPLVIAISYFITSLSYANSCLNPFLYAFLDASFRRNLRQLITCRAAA

Chain of human GPR8 (P48146 whole entry): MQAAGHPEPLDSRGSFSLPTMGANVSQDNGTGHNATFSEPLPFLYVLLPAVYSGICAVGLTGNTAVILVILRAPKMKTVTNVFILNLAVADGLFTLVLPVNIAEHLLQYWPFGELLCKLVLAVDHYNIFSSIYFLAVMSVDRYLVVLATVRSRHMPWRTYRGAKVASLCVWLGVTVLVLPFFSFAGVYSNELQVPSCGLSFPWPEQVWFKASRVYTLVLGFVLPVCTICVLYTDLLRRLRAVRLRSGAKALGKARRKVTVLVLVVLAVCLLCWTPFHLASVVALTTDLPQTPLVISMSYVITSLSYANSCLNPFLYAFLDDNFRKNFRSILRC

cAMP level in human GPR8-expressed cells, relative to FSK stimulation only (human GPR8): 31%
cAMP level in human GPR7-expressed cells, relative to FSK stimulation only (human GPR7): 46%
Binder: WYKHVASPRYHTVGRAAGLLMGL [human neuropeptide W (1-23)]
